Values joined by “and” are separate entries in the source; they are usually repeats but may differ in a detail not shown here. Identical values can stand only once.
Experiments:
occludin = assay: Western blot of occludin after CLDN1 siRNA in PHK; assay type: cell-based, human; conditions: 48 h
Experimental: (§1) PHK were lysed on ice in RIPA lysis buffer (20 mM Tris, 50 mM NaCl, 2 mM EDTA, 2 mM EGTA, 1% sodium deoxycholate, 1% TX-100, and 2% SDS, pH 7.4), with 1:100 Protease Inhibitor Cocktail (Sigma), 1:100 Phosphatase Inhibitor Cocktail ([…] for 30 min at 4° C. The samples were heated at 95° C. for 10 min and then centrifuged at 14,000 rpm for 15 min. Forty μg of protein, determined by BCA (Pierce) in NuPage LDS Sample Buffer (Invitrogen) was applied to 4-12% NuPage Bis-Tris gels (Invitrogen). Electrophoresis was performed under reducing conditions with MES SDS Buffer (Invitrogen). Membranes were incubated in blotting solution (5% non-fat dry milk in PBS+0.05% Tween 20) at RT for 1 h and then incubated with primary antibodies; claudin-1 (JAY.8; Zymed), occludin (OC/3F10; Zymed) and GAPDH (FL-355; Santa Cruz). An HRP-linked secondary antibody (GE Healthcare) was used with ECL (GE Healthcare) to visualize bands by autoradiography with Kodak BioMax MR film. The pixel intensity of each band was estimated with Image J.
PHK were plated on glass coverslips at 2-3×10^5 cells/well in a 6-well plate or at 2-3×10^4 cells/filter in Transwell insert (Costar; PET membrane, 0.4 μm pore size, 6.5 mm insert) in Keratinocyte-SFM without antibiotics. […]

HSV-1 strain F = assay: Infectious center assay; assay type: cell-based, Herpes Simplex Virus (HSV)-1; conditions: 24 h post-infection, n=3
Experimental: Twenty-four hours post-infection, PHK were treated with 0.05% Trypsin-EDTA (Invitrogen/Gibco) for 5 min at 37° C. followed by gently scraping to lift the cells, washed 3 times in DMEM containing 1% HI-FBS, and vortexed for 30 sec to disrupt cell clumps. Alive cells were counted using Trypan blue exclusion and scalar PHK dilutions (1000 to 1 cells in 1 ml of media) were plated onto pre-grown monolayers of Vero cells in six well plates. After 2 h, 1 ml of DMEM containing 5% HI-FBS and 0.4% human-γ-globulin (Sigma; final concentration 0.5 mg/ml) was added to each well. After 3 days incubation at 37° C., cells were fixed (75% MeOH/25% acetic acid) and stained with 0.1% crystal violet. Plaques were counted by 2 independent investigators and results expressed as percent of infected PHK.

claudin-1 = assay: Western blot of claudin-1 protein in primary human keratinocytes; assay type: cell-based; conditions: PHK
Experimental: Human keratinocytes were isolated from neonatal foreskin. Poumay et al., “Basal Detachment of the Epidermis Using Dispase: Tissue Spatial Organization and Fate of Integrin Alpha 6 Beta 4 and Hemidesmosomes,” J. Invest. Dermatol. 102:111-7 (1994), which is hereby incorporated by reference in its entirety. PHK were cultured in Keratinocyte-SFM (Invitrogen/Gibco) with 1% Pen/Strep, 0.2% Amphotericin B (Invitrogen/Gibco). To differentiate PHK, cells were grown in DMEM (Invitrogen/Gibco) with 10% heat-inactivated fetal bovine serum (Invitrogen/Gibco) and 1% Pen/Strep, 0.2% Amphotericin B (Invitrogen/Gibco). For TJ modulation experiments, the following cytokines were added alone or in combination to the differentiation media; human IL-4 (50 ng/ml; R&D system) and IL-13 (50 ng/ml; R&D system).
as §1
(§2) PHK were plated on glass coverslips at 2-3×10^5 cells/well in a 6-well plate or at 2-3×10^4 cells/filter in Transwell insert (Costar; PET membrane, 0.4 μm pore size, 6.5 mm insert) in Keratinocyte-SFM without antibiotics. The next day after plating, cells were transfected with claudin-1 specific or control (scrambled) siRNAs (Santa Cruz) using Lipofectamine™ 2000 transfection Reagent (Invitrogen). TEER and permeability experiments were conducted 48 hours after PHK were switched to differentiation media.

connexin-26 (GJB2) = assay: qPCR of connexin-26 (GJB2) after claudin-1 knockdown in PHK; assay type: cell-based, human; conditions: claudin-1 siRNA transfected PHK, n=6
Experimental: (§3) QPCR was performed using the iScript™ cDNA Synthesis kit and iQ™ SYBER Green Supermix assay system (Bio-Rad Laboratories). All PCR amplifications were carried out in triplicate on an iQ5 Multicolor real-time PCR detection system (Bio-Rad). Primers were designed and synthesized by Integrated DNA Technologies (Table 1). Relative gene expression was calculated by using the 2^−ΔΔCt method. Livak and Schmittgen, “Analysis of Relative Gene Expression Data Using Real-Time Quantitative PCR and the 2(−Delta Delta C(T)) Method,” Methods 25:402-8 (2001), which is hereby incoporated by reference in its entirety. The normalized Ct value of each sample was calculated using GAPDH as an endogenous control gene.
as §2

nectin-1 (PVRL1) = assay: qPCR of nectin-1 (PVRL1) after CLDN1 siRNA in PHK; assay type: cell-based, human
Experimental: as §2, with “a E-well” for “a 6-well”, “Transwell inserts” for “Transwell insert”, “(Invitrogen).” for “(Invitrogen). TEER and permeability experiments were conducted 48 hours after PHK were switched to differentiation media.”
Reverse transcription was performed from total RNA using iScript™ cDNA Synthesis kit (Bio-Rad) according to the manufacturer's protocol. qPCR was performed using the iQ™ SYBER Green Supermix assay system from Bio-Rad Laboratories. All PCR amplifications were carried out in triplicate on an iQ5 Multicolor real-time PCR detection system (Bio-Rad). Primers were designed and synthesized by Integrated DNA Technologies. […]
Relative gene expression was calculated by using the […], in which Ct indicates cycle threshold, the fractional cycle number where the fluorescent signal reaches detection threshold. Livak and Schmittgen, “Analysis of Relative Gene Expression Data Using Real-Time Quantitative PCR and the 2(−Delta Delta C(T)) Method,” Methods 25:402-8 (2001), which is hereby incorporated by reference in its entirety. The normalized Ct value of each sample was calculated using GAPDH as an endogenous control gene.

claudin-1 transcripts = assay: qPCR of claudin-1 transcripts after siRNA transfection of PHK; assay type: cell-based, human; conditions: siRNA 100 nM
Experimental: as §3, §2
siRNA approach was used to selectively downregulate claudin-1 in primary human keratinocytes (PHK). […] There was no effect on mRNA expression of occludin, ZO-1, nectin-1, E-cadherin or filaggrin (n=5/group). Relative gene expressions were calculated by using the 2^−ΔΔCt method, in which Ct indicates cycle threshold, the fractional cycle number where the fluorescent signal reaches detection threshold. The normalized Ct value of each sample was calculated using GAPDH as endogenous control gene. The specific sequence information for the claudin-1 siRNA (h) is detailed below. (This siRNA is a pool of 3 separate strands.)

B1: CLDN1 siRNA: claudin-1 specific siRNA (Santa Cruz), a pool of 3 separate strands, SEQ ID NO: 10-15 (nucleic acid)
chain 1: UACAUAGGCAUAGUUCAUGNN
chain 2: CAUGAACUAUGCCUAUGUANN
chain 3: AACGUAUGCAGUUAAUUCCNN
chain 4: GGAAUUAACUGCAUACGUUNN
chain 5: UGAAGAUCUAUGUAUGUGGNN
chain 6: CCACAUACAUAGAUCUUCANN
modifications: chemistry not given here
occludin
  occludin protein by Western blot: No change
HSV-1 strain F
  PHK infected with HSV-1: 38±6% and 38±6.43%
claudin-1; CLDN1 siRNA, 48 h
  claudin-1 protein by Western blot: dose-dependent reduction
claudin-1; dose-dependent
  decrease in claudin-1 protein expression compared to scrambled siRNA-transfected cells: ≤ 60%
connexin-26 (GJB2)
  connexin-26 (GJB2) expression over control: 1.7±0.8 fold
nectin-1 (PVRL1); n=5
  nectin-1 mRNA expression, effect of CLDN1 silencing: not affected
nectin-1 (PVRL1); siRNA 100 nM, n=5/group
  nectin-1 (PVRL1) mRNA relative expression: 0.99±0.16
claudin-1 transcripts
  reduction in claudin-1 transcripts compared to control transfected cells: 50%
claudin-1 transcripts; n=5/group
  claudin-1 transcripts (MEAN±SEM): 5.42±0.8 RVU
  claudin-1 transcripts relative to control transfected cells: 0.5 fold
claudin-1 transcripts; n=5/group, listed as Cldn1 siRNA
  claudin-1 transcripts relative to control transfected cells: 0.5%±0.06 fold

Source: patent US20130045267A1, “METHODS OF USING AGENTS THAT MODULATE CLAUDIN EXPRESSION” (priority 2010, published 2013)
